One block for each binder: values may come before it.
B1: human Angiopoietin-1 (ligand)
chain: SNQRRSPENSGRRYNRIQHGQCAYTFILPEHDGNCRESTTDQYNTNALQRDAPHVEPDFSSQKLQHLEHVMENYTQWLQKLENYIVENMKSEMAQIQQNAVQNHTATMLEIGTSLLSQTAEQTRKLTDVETQVLNQTSRLEIQLLENSLSTYKLEKQLLQQTNEILKIHEKNSLLEHKILEMEGKHKEELDTLKEEKENLQGLVTRQTYIIQELEKQLNRATTNNSVLQKQQLELMDTVHNLVNLCTKEVLLKGGKREEEKPFRDCADVYQAGFNKSGIYTIYINNMPEPKKVFCNMDVNGGGWTVIQHREDGSLDFQRGWKEYKMGFGNPSGEYWLGNEFIFAITSQRQYMLRIELMDWEGNRAYSQYDRFHIGNEKQNYRLYLKGHTGTAGKQSSLILHGADFSTKDADNDNCMCKCALMLTGGWWFDACGPSNLNGMFYTAGQNHGKLNGIKWHYFKGPSYSLRSTTMMIRPLDF
notes: Bought recombinant protein (R&D Systems 293-AN-025/CF) or supernatant of transfected 293F cells; also called Ang-1; recombinant Ang-1

Experiments:
[1] = molecular target: T1, recombinant human Tie2/Fc fusion protein (human, UniProt Q02763 23-745); experiment: FACS competition: binding of His-tagged recombinant human Ang-1 to Tie2 on HEK293F/Tie2 transfectants, soluble Tie2/Fc titrated, n = 3
T1 construct: Bought fusion protein; also called hTie2/Fc; soluble Tie2/Fc
Protocol: Cell suspension of 4 million cells/mL in FACS Buffer were prepared, and then aliquoted to a 96-well polypropylene plate with 50 ul per well. […] Cells were washed by centrifuging the plate at 1,200 rpm for 5 minutes, removing the supernatant by aspirating, and resuspending the cells with 200 ul per well of FACS Buffer. Washing procedures were repeated twice. The cells were then suspended with 100 ul of mouse Anti-6×-Histidine antibody diluted to 2 ug/ml in FACS Buffer, and incubated at room temperature for 30 minutes. After washing, the cells were suspended in 100 ul of PE-conjugated goat anti-mouse-IgG, which was diluted 1:100 in FACS Buffer, for incubation at room temperature for 30 minutes. The volume of the samples were brought to 300 ul with FACS Buffer, and measured with FACS Calibur.

[2] = molecular target: T2, Human Ang-1/2 BsmI chimeric molecule (human); experiment: ELISA
T2 chain: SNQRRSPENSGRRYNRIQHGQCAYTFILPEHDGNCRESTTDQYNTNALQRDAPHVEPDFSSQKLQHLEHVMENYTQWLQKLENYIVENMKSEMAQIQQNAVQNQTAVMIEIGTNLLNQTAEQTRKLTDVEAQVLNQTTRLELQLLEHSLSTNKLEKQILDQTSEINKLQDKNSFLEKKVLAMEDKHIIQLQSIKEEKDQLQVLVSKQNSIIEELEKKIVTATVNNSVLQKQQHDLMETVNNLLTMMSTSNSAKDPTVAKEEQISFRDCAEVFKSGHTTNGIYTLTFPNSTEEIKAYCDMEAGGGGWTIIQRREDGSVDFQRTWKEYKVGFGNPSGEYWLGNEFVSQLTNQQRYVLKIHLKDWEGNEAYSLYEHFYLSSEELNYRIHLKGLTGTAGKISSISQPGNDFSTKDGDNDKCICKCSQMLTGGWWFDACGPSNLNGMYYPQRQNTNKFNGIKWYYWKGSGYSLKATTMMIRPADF

human Ang-2 H375Q = molecular target: T3, human Ang-2 H375Q (human, UniProt O15123 19-496); experiment: ELISA
T3 sequence: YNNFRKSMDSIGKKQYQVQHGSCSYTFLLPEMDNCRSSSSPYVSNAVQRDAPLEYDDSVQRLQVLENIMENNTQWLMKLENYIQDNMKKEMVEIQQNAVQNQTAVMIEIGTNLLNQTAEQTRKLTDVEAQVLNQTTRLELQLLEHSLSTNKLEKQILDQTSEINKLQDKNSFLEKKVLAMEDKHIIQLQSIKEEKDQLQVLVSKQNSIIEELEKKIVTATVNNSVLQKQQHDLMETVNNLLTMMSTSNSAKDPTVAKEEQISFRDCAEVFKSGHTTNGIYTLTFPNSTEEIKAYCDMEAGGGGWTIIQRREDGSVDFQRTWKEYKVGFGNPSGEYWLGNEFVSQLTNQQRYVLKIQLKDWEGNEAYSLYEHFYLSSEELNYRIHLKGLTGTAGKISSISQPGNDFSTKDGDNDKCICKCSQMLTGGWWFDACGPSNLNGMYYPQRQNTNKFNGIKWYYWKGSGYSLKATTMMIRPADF

human Ang-2443 = molecular target: T4, human Ang-2443 (human, UniProt O15123 19-496); experiment: ELISA
T4 construct: Splice variant missing amino acids 96-148; supernatant of transfected 293F cells
T4 sequence: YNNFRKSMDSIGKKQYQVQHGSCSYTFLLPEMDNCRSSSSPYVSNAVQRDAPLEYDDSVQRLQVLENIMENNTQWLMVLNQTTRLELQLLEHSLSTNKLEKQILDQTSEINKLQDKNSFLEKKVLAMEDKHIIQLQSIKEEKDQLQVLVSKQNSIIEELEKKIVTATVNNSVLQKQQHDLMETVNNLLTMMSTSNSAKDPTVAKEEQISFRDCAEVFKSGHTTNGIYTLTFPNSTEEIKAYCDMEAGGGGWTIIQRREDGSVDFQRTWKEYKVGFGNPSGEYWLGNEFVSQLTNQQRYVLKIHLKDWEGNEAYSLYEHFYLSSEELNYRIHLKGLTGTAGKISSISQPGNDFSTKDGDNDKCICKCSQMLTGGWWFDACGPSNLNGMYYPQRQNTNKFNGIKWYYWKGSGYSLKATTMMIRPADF

human Ang-2 V345M = molecular target: T5, human Ang-2 V345M (human, UniProt O15123 19-496); experiment: ELISA
T5 sequence: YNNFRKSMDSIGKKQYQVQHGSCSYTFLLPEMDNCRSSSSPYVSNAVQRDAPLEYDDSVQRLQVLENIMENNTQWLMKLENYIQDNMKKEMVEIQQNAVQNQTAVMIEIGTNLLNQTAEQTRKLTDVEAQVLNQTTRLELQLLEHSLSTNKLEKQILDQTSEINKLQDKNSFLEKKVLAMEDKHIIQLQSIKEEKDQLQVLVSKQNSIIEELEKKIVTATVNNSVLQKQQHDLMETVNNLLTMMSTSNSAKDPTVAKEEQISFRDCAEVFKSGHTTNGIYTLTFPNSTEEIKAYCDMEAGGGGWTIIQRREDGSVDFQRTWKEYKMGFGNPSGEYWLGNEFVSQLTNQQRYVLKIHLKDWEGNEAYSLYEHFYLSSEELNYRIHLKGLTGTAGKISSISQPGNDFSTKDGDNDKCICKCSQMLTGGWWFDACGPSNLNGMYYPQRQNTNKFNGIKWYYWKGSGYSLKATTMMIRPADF

human Angiopoietin-2 [3] = molecular target: T6, human Angiopoietin-2 (human, UniProt O15123 19-496); experiment: inhibition of rhAng-2 binding to its receptor
T6 construct: Mostly bought recombinant protein (R&D Systems 623-AM/CF, 623-AN; biotinylated BT623) or supernatant of transfected 293F cells; also called Ang-2; rhAng-2
T6 sequence: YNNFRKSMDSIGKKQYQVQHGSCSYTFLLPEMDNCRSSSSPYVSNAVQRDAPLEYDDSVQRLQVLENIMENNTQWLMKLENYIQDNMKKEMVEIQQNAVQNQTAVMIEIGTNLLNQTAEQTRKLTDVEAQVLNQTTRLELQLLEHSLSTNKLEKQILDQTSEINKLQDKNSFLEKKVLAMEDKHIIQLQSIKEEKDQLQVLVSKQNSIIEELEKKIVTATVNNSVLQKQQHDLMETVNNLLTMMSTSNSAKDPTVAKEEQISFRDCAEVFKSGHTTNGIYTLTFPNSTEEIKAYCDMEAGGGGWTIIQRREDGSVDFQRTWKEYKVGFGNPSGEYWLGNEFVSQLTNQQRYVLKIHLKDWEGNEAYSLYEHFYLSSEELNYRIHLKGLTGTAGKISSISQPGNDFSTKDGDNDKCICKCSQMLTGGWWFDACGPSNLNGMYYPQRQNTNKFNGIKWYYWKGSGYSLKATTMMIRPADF

human Angiopoietin-2 [4] = molecular target: T6, human Angiopoietin-2; experiment: Biacore; kd held constant (*)
Protocol: (§1) The label-free surface plasmon resonance (SPR), or Biacore, was utilized to measure the antibody affinity to the antigen. For this purpose, a high-density goat anti-human antibody surface over a CM5 Biacore chip was prepared using routine amine coupling. All the purified mAbs were diluted to approximately 8 μg/ml in HBS-P running buffer containing 100 μg/ml BSA and 10 mg/mL carboxymethyldextran. Each mAb was captured on a separate surface using a 42-second contact time, and a 5-minute wash for stabilization of the mAb baseline.
(§2) Data were fit globally to a 1:1 interaction model to determine the binding kinetics.

human Angiopoietin-2 [5] = molecular target: T6, human Angiopoietin-2; experiment: Biacore, mAb captured
Protocol: as §1, §2

human Angiopoietin-1 = molecular target: B1; experiment: capture ELISA
Protocol: The binding of the top 27 human monoclonal antibodies was detected with a HRP-conjugated goat anti-human antibody, followed by colorimetric horseradish peroxidase substrate (Enhanced K-Blue TMB substrate Neogen Corporation). The absorbance of each well of the ELISA plates was measured at 450 nm on a microplate autoreader.

mouse Angiopoietin-2 = molecular target: T7, mouse Angiopoietin-2 (mouse, UniProt O35608 19-496); experiment: ELISA, recombinant mouse Ang-2
T7 construct: Used as conditioned medium of transfectants; also called mAng-2; mouse Ang-2
T7 sequence: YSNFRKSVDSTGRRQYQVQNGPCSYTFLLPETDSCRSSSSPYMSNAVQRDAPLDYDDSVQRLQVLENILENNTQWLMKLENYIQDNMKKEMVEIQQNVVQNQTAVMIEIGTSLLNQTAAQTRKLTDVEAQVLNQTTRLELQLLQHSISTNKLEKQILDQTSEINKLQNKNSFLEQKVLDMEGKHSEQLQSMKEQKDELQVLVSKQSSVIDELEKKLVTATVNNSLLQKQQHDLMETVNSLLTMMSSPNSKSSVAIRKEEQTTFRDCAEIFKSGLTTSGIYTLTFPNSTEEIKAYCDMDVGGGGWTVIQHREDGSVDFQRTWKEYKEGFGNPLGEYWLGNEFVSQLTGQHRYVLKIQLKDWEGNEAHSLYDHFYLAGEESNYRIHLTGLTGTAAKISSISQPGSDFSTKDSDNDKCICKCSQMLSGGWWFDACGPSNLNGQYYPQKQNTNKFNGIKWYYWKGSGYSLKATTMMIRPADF

T1 sequence (Q02763 23-745 limits assumed): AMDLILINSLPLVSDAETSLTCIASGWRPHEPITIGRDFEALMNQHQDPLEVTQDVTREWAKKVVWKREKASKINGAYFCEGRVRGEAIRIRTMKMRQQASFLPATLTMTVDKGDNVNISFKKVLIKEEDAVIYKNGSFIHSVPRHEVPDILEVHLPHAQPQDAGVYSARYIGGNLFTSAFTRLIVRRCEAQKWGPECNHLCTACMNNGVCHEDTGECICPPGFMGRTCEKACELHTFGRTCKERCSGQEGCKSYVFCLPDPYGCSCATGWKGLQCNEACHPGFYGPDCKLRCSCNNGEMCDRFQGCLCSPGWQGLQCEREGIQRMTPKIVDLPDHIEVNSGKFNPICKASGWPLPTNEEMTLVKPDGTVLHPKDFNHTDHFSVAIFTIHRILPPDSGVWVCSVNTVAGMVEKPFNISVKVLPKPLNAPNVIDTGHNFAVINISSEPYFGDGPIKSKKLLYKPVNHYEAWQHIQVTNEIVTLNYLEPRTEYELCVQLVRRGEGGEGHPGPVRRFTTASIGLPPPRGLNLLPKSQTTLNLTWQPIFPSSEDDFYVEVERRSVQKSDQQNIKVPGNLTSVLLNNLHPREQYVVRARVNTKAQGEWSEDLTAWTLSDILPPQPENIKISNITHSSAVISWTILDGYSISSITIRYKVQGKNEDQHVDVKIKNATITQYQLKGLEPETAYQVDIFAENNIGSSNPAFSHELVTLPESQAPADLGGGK

Binder: B1
binding result [1]: binds

% of binding to human Ang-2 [2]: 100%
% of binding to human Ang-2 (human Ang-2 H375Q): 100%
% of binding to human Ang-2 (human Ang-2443): 100%
% of binding to human Ang-2 (human Ang-2 V345M): 100%
OD650 in inhibition assay (human Angiopoietin-2 [3]): 0.0617 OD650
koff (human Angiopoietin-2 [4]): ≤ 1e-05 s⁻¹
Kd (human Angiopoietin-2 [5]): ≤ 0.073 nM
kon (human Angiopoietin-2 [5]): 140000 M⁻¹ s⁻¹
binding result (human Angiopoietin-1): no binding
B2: mAb 6.3.1 (antibody, V domains shown)
VH: QVQLVQSGAEVKKPGASVKVSCKASGYTFTGYFMHWVPQAPGQGLEWMGWINPNSGGTNYAQNFQGRVTMTRDTSISTAYMELSRLRSDDTPVYYCARDPWQNWNSYFDYWGQGTLVTVSS
VL: DIQMTQSPSSLSASVGDRVTITCRASQSIRSYLNWYQQKPGKAPKVLIYAASSLQSGVPSRFSGSGSGTDFTLTISSLQPEDFATYYCQQSYSTLCSFGQGTKLEIKR
notes: Human hybridoma IgG (XenoMouse); also called x6.3

binding result (mouse Angiopoietin-2): no binding
binding result (human Angiopoietin-1): no binding
B3: mAb 5.41.1 (antibody, V domains shown)
VH: EVQLVESGGGLVQPGGSLRLSCAASGFTFSSYWMSWVRQAPGKGLEWVANIKEDGSEKYYVDSVKGRFTISRDNAKNSLYLQMNSLRAEDTAVFYCARDRSSGFFDYWGQGTLVTVSS
VL: EIVMTQSPATLSVSPGERATLSCRASQSVSSNLAWYQQKPGQAPRFLIYGASTRATGIPARFSGSGSGTEFTLTISSLQSEDFAVYYCQQYNHWWTFGQGTKVEIKR
notes: Human hybridoma IgG (XenoMouse); also called x5.41

binding result (mouse Angiopoietin-2): no binding
binding result (human Angiopoietin-1): no binding
B4: mAb 5.16.3 (antibody, V domains shown)
VH: QVQLVQSGAEVKKPGASVKVSCKASGYTFTGFYMYWVRQAPGQGLEWMGWINPNSSGTNHAQKFQGRVTMTRDTSISTAYMELSRLRSDDTAVYYCARDQDIATAGPFDYWGQGTLVTVSS
VL: EIVMTQSPATLSVSPGERATLSCRASQSVSSNLAWYQQKPGQAPRLLIFGASTRATGIPARFSGSGSGTEFTLTISSLQSEDFAVYYCQQYNNWWTFGRGTKVEIKR
notes: Human hybridoma IgG (XenoMouse); also called x5.16
